Assay [1] deals with bovine brain calcineurin (bovine) (UniProt P48452).
Assay [2] addresses N-succinyl-Ala-Leu-Pro-Phe-p-nitroanilide.

For the substance “FKBP12.6 (bovine, purified from calf brain cytosol)”, the IC50 for inhibition of CaN phosphatase activity (with FK-506, CaM, Ca2+, Mg2+) in assay [1] is 16 nM.
Substance cyclophilin (enzyme) gave a PPIase activity in assay [2] of 25 fold.
For the substance “recombinant human FKBP12 (from UniProt P62942)”, in assay [1], the IC50 for inhibition of CaN phosphatase activity (with FK-506, CaM, Ca2+, Mg2+) came to 9.9 nM.

The record behind these values is patent US5457182.
